US20200317802A1 (Merck KGaA, published 2020)
Substitutions are numbered along the chain they refer to. Blank lines part the entries; values can stand above or below the binder they belong to.

Assays:
[1] = molecular target: T1, recombinant human ADAMTS5 (R&D Systems cat #2198-AD) (human, UniProt Q9UNA0 262-622, limits assumed); test: cell-based or functional assay
T1 sequence: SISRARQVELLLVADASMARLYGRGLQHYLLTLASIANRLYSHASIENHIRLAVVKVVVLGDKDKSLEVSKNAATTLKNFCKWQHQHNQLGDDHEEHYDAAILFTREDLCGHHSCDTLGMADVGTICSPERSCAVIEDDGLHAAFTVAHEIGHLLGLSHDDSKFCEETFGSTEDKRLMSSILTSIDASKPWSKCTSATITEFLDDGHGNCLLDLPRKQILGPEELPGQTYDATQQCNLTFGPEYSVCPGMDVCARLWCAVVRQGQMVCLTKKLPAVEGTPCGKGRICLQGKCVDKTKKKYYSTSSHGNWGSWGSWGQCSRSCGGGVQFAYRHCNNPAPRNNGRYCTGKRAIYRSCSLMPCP

[2] = molecular target: T1, recombinant human ADAMTS5 (R&D Systems …); test: cell-based or functional assay; remark: listed apart in the source
[3] = molecular target: T2, cynomolgus monkey recombinant ADAMTS5 (cynomolgus monkey, UniProt Q9UNA0 262-622 (human entry), limits assumed); test: cell-based or functional assay
T2 chain: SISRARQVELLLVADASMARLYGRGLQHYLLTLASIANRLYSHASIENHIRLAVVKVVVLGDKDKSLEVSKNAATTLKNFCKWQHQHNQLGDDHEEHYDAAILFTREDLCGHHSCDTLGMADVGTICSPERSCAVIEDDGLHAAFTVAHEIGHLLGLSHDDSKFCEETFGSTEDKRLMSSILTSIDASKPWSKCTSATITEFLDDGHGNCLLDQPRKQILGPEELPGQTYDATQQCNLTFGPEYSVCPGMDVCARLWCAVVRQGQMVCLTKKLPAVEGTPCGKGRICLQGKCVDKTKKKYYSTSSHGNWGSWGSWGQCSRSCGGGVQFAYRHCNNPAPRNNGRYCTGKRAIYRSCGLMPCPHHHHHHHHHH

[4] = molecular target: T3, guinea pig recombinant ADAMTS5 (guinea pig); test: cell-based or functional assay
T3 chain: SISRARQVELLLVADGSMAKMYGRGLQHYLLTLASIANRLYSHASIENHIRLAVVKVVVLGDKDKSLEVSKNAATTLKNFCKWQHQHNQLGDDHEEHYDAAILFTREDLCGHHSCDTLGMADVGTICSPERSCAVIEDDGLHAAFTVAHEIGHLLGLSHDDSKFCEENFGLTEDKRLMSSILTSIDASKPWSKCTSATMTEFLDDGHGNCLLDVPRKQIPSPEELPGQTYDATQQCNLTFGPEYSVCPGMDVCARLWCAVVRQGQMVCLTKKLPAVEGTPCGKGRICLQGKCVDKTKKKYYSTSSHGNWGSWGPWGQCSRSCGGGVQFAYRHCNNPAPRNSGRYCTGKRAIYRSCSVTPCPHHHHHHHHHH

[5] = molecular target: T1, recombinant human ADAMTS5 (R&D Systems …); test: binding ELISA, periplasmic extract on coated human ADAMTS5
Procedure: In a first step, periplasmic extracts were tested for binding to recombinant human ADAMTS5 by binding ELISA. In brief, recombinant human ADAMTS5 (R&D Systems, Minneapolis, US; cat #2198-AD) at a concentration of 1 μg/ml was coated on 384-well MaxiSorp plates (Nunc, Wiesbaden, Germany). Wells were blocked with a casein solution (1%). After addition of a 10-fold dilution of the periplasmic extracts, Nanobody binding was detected using a mouse anti-Flag-HRP conjugate (Sigma, St. Louis, US) and a subsequent enzymatic reaction in the presence of the substrate esTMB (3,3′,5,5′-tetramentylbenzidine) (SDT, Brussels, Belgium). Clones showing ELISA signals higher than the sum of the average signal of the irrelevant Nanobody controls and 3 times the standard deviation of the irrelevant Nanobody controls were considered to encode positive human ADAMTS5 binding Nanobodies.

[6] = molecular target: T1, recombinant human ADAMTS5 (R&D Systems …); test: SPR off-rate, Biacore T100, ADAMTS5 immobilised, experiment 1
Procedure: (§1) Species cross-reactivity was initially evaluated via SPR-based off-rate analysis on a Biacore T100 instrument. Nanobodies were tested for binding to human, cynomolgus monkey (“cyno”), guinea pig, mouse, and bovine ADAMTS5. To this end, recombinant ADAMTS5 was immobilized onto a CM5 chip via amine coupling using EDC and NHS. Purified Nanobodies were injected for 2 minutes at a concentration of 100 nM and allowed to dissociate for 15 min at a flow rate of 45 ul/min. Off-rate for each individual Nanobody was determined by fitting a 1:1 interaction model (Langmuir model) onto the individual dissociation curves using the BIA Evaluation software. As a reference, off-rates on human ADAMTS5 were determined in each experiment.

[7] = molecular target: T2, cynomolgus monkey recombinant ADAMTS5; test: as above
Procedure: as §1

[8] = molecular target: T3, guinea pig recombinant ADAMTS5; test: as above
Procedure: as §1

[9] = molecular target: T4, mouse recombinant ADAMTS5 (mouse, UniProt Q9R001 262-622, limits assumed); test: SPR off-rate, Biacore T100, ADAMTS5 immobilised, experiment 2
T4 construct: in house, HEK293, His tag in the entry
T4 sequence: T3 chain with G16S, K20R, G61T, K65T, L171T, M199I, V214L, P220L, S221G, I286V
Procedure: as §1

[10] = molecular target: T1, recombinant human ADAMTS5 (R&D Systems …); test: SPR off-rate, Biacore T100, ADAMTS5 immobilised, experiment 3
Procedure: as §1

FRET assay % inh, periplasmic extract [1]: 104%
FRET assay vi (U/min), periplasmic extract [1]: -1 U/min
AlphaLISA potency IC50, Human [2]: 150 pM
AlphaLISA potency IC50, Cyno [3]: 190 pM
AlphaLISA potency IC50, Guinea pig [4]: 530 pM
binding ELISA (OD 450 nm) [5]: 1.75 OD 450 nm
koff [6]: 0.00014 s⁻¹
koff [7]: 0.0001 s⁻¹
koff [8]: 0.00012 s⁻¹
koff [9]: 0.00044 s⁻¹
koff [10]: 0.00031 s⁻¹
B1: Nanobody 2A12 (VHH)
VHH: EVQLVESGGGLVQAGGSLRLSCAASGRTFSSYAMGWFRQAPGKERDFVAGISRSAGRTYYVDSVKGRFTISRDSAKNTVYLQMNRLKPEDTAVYYCAADLDPNRIFSRDEAAYWGQGTLVTVSS
notes: tagged as tested (anti-Flag detection, IMAC); also called 02A12

FRET assay % inh, periplasmic extract [1]: 103%
FRET assay vi (U/min), periplasmic extract [1]: -1 U/min
AlphaLISA potency IC50, Human [2]: 75 pM
AlphaLISA potency IC50, Cyno [3]: 81 pM
AlphaLISA potency IC50, Guinea pig [4]: 300 pM
binding ELISA (OD 450 nm) [5]: 1.84 OD 450 nm
koff [6]: 3.3e-05 s⁻¹
koff [7]: 2.2e-05 s⁻¹
koff [8]: 3.4e-05 s⁻¹
koff [9]: 0.00029 s⁻¹
koff [10]: 9.7e-05 s⁻¹
B2: Nanobody 2F03 (VHH)
VHH: B1 VHH with F29V, Q39L, D46E, G56E, V64L, Q82H, D109E, A111Y
notes: tagged as tested (anti-Flag detection, IMAC); also called 02F03; 2F3
